Experimental data as given in publication PMC7736794.

B1: Flag-USP36 wild type [not stated] / Myc-PrimPol WT [not stated] (parent)
chain 1: MPIVDKLKEALKPGRKDSADDGELGKLLASSAKKVLLQKIEFEPASKSFSYQLEALKSKYVLLNPKTEGASRHKSGDDPPARRQGSEHTYESCGDGVPAPQKVLFPTERLSLRWERVFRVGAGLHNLGNTCFLNATIQCLTYTPPLANYLLSKEHARSCHQGSFCMLCVMQNHIVQAFANSGNAIKPVSFIRDLKKIARHFRFGNQEDAHEFLRYTIDAMQKACLNGCAKLDRQTQATTLVHQIFGGYLRSRVKCSVCKSVSDTYDPYLDVALEIRQAANIVRALELFVKADVLSGENAYMCAKCKKKVPASKRFTIHRTSNVLTLSLKRFANFSGGKITKDVGYPEFLNIRPYMSQNNGDPVMYGLYAVLVHSGYSCHAGHYYCYVKASNGQWYQMNDSLVHSSNVKVVLNQQAYVLFYLRIPGSKKSPEGLISRTGSSSLPGRPSVIPDHSKKNIGNGIISSPLTGKRQDSGTMKKPHTTEEIGVPISRNGSTLGLKSQNGCIPPKLPSGSPSPKLSQTPTHMPTILDDPGKKVKKPAPPQHFSPRTAQGLPGTSNSNSSRSGSQRQGSWDSRDVVLSTSPKLLATATANGHGLKGNDESAGLDRRGSSSSSPEHSASSDSTKAPQTPRSGAAHLCDSQETNCSTAGHSKTPPSGADSKTVKLKSPVLSNTTTEPASTMSPPPAKKLALSAKKASTLWRATGNDLRPPPPSPSSDLTHPMKTSHPVVASTWPVHRARAVSPAPQSSSRLQPPFSPHPTLLSSTPKPPGTSEPRSCSSISTALPQVNEDLVSLPHQLPEASEPPQSPSEKRKKTFVGEPQRLGSETRLPQHIREATAAPHGKRKRKKKKRPEDTAASALQEGQTQRQPGSPMYRREGQAQLPAVRRQEDGTQPQVNGQQVGCVTDGHHASSRKRRRKGAEGLGEEGGLHQDPLRHSCSPMGDGDPEAMEESPRKKKKKKRKQETQRAVEEDGHLKCPRSAKPQDAVVPESSSCAPSANGWCPGDRMGLSQAPPVSWNGERESDVVQELLKYSSDKAYGRKVLTWDGKMSAVSQDAIEDSRQARTETVVDDWDEEFDRGKEKKIKKFKREKRRNFNAFQKLQTRRNFWSVTHPAKAASLSYRR
chain 2: MNRKWEAKLKQIEERASHYERKPLSSVYRPRLSKPEEPPSIWRLFHRQAQAFNFVKSCKEDVHVFALECKVGDGQRIYLVTTYAEFWFYYKSRKNLLHCYEVIPENAVCKLYFDLEFNKPANPGADGKKMVALLIEYVCKALQELYGVNCSAEDVLNLDSSTDEKFSRHLIFQLHDVAFKDNIHVGNFLRKILQPALDLLGSEDDDSAPETTGHGFPHFSEAPARQGFSFNKMFTEKATEESWTSNSKKLERLGSAEQSSPDLSFLVVKNNMGEKHLFVDLGVYTRNRNFRLYKSSKIGKRVALEVTEDNKFFPIQSKDVSDEYQYFLSSLVSNVRFSDTLRILTCEPSQNKQKGVGYFNSIGTSVETIEGFQCSPYPEVDHFVLSLVNKDGIKGGIRRWNYFFPEELLVYDICKYRWCENIGRAHKSNNIMILVDLKNEVWYQKCHDPVCKAENFKSDCFPLPAEVCLLFLFKEEEEFTTDEADETRSNETQNPHKPSPSRLSTGASADAVWDNGIDDAYFLEATEDAELAEAAENSLLSYNSEVDEIPDELIIEVLQE

Variants of: B1
Experiment: co-immunoprecipitation (anti-Flag agarose beads), immunoblot band quantification
Conditions: with Myc-PrimPol WT; USP36 stably knocked-down HEK293T cells; HU (10 mM) for 8 h; parent: 1.6; read off a plot; scale: relative band intensity

Variant | response
chain 1 K329R K338R | 1.6

Same assay, conditions: with Myc-PrimPol WT; USP36 stably knocked-down HEK293T cells; untreated (Ctrl); parent: 1; read off a plot; scale: relative band intensity

Variant | response
chain 1 K329R K338R | 1.6
